In US20100105141:

Legend:
Assay in all cases: SPR
[1] = tested on: L7-1C03-A5 (EsR1) L55M,H64A,F67V,S85I,F86M,H100C,R104G,P105F,K108Q,L113A,Q116S,N129H,L134M,S135Q,V137A,H139I,E147L,H151L,L170V,I174L,F177N (synthetic); settings: ka 4.7e4 M-1 s-1, kd 7.8e-3 s-1
[2] = molecular target: L7-1F08-A11 (L7-A11, EsR2) L55M,H64A,F67Y,F86M,H100C,R104G,P105F,K108Q,L113A,Q116S,L134M,S135Q,H139I,F140Y,E147L,H151L,L170V,I174L,F177K (synthetic) (UniProt P04483); settings: ka 7.1e4 M-1 s-1, kd 1.7e-2 s-1
[3] = molecular target: L7-1G06-B2 L55M,H64A,F67Y,F86M,H100C,R104G,P105F,K108Q,L113A,Q116S,L117M,L134M,S135Q,H139I,F140Y,E147L,H151L,L170V,I174L,F177K (synthetic) (UniProt P04483); settings: ka 4.6e4 M-1 s-1, kd 1.9e-2 s-1
[4] = tested on: L7-3E03-D1 (EsR4) L55M,H64A,F67Y,F86M,H100C,R104G,P105F,K108Q,L113A,Q116S,N129H,L131M,L134M,S135Q,V137A,H139I,F140Y,E147L,H151L,L170V,I174L,F177K (synthetic); settings: ka 5.5e4 M-1 s-1, kd 1.1e-2 s-1
[5] = molecular target: wt TetR(B) (Tn10, Gly inserted after Met1) (Escherichia coli) (UniProt P04483); settings: ka 3.3e5 M-1 s-1, kd 3.0e-3 s-1; operator sequence used on chip not stated

Work on tet operator (Biacore) yielded a Kd [1] of 0.15 µM, a Kd [2] of 0.25 µM and a Kd [3] of 0.43 µM. For the same substance, the Kd [4] was 0.2 µM and the Kd [5] was 0.009 µM.
